Target: Plasmodium vivax Duffy binding protein region II (DBP-RII), recombinant (Plasmodium vivax) (UniProt P22290)
Test: ITC; DARC1-60 at 1.3 mM titrated into 1.4 mL of 130 µM DBP-RII; PBS; 10°C; independent two-site binding model after subtraction of both controls; molar ratios in monomers of DBP-RII

UniProt P22290, sequence (P22290 211-525): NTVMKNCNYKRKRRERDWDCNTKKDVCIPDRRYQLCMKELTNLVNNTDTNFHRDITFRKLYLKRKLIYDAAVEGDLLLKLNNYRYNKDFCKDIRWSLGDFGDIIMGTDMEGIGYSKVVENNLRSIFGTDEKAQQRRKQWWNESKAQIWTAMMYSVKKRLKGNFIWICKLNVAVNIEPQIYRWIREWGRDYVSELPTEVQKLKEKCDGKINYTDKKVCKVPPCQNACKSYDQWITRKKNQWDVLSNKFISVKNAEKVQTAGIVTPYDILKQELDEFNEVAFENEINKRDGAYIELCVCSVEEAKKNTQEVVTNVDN

DARC N-terminal ectodomain, residues 1-60, unsulfated, three cysteines mutated to alanine (from UniProt Q16570 1-60) (domain or fragment)
Kd1 (first binding event, heterotrimer; two independent sites fit): 2180 nM
Kd2 (second binding event, heterotetramer; two independent sites fit): 88.5 nM
Kd of the first binding event (two independent sites fit): 2180 nM
dH1 (first binding event): -2.66 kcal/mol
dH2 (second binding event): -3.34 kcal/mol
n1 (first binding event, per monomer of DBP-RII): 0.44
n2 (second binding event, per monomer of DBP-RII): 0.5
stoichiometry N: 1

From PMC3887093
